Measurements: the Immune Epitope Database (IEDB)
pKd: −log10 of the molar value.

How the values were obtained:
[1] = biological target: HLA-A*02:01; assay: IEDB peptide-MHC binding, purified MHC/direct/fluorescence; filed as Kd, often an IC50 or EC50 that approximates it; ≥ and ≤ were set here for values at or beyond the usual limits of such assays; settings: source organism: Sudan ebolavirus - Maleo (1979)
[2] = biological target: HLA-A*24:03; assay: as above; settings: source organism: Zaire ebolavirus
[3] = biological target: HLA-B*57:01; assay: IEDB peptide-MHC binding, purified MHC/competitive/fluorescence; filed as Kd, often an IC50 or EC50 that approximates it; ≥ and ≤ were set here for values at or beyond the usual limits of such assays; settings: source organism: Zaire ebolavirus
[4] = biological target: HLA-B*18:01; assay: as above; settings: source organism: Zaire ebolavirus
[5] = biological target: HLA-B*83:01; assay: as above; settings: source organism: Zaire ebolavirus
[6] = biological target: HLA-A*03:19; assay: as above; settings: source organism: Zaire ebolavirus
[7] = biological target: HLA-B*27:03; assay: as above; settings: source organism: Zaire ebolavirus
[8] = biological target: HLA-C*06:02; assay: as above; settings: source organism: Zaire ebolavirus
[9] = biological target: HLA-A*26:01; assay: as above; settings: source organism: Zaire ebolavirus
[10] = biological target: HLA-B*15:17; assay: as above; settings: source organism: Zaire ebolavirus
[11] = biological target: HLA-B*15:42; assay: as above; settings: source organism: Zaire ebolavirus
[12] = biological target: HLA-B*45:06; assay: as above; settings: source organism: Zaire ebolavirus
[13] = biological target: HLA-B*39:01; assay: as above; settings: source organism: Zaire ebolavirus
[14] = biological target: HLA-B*15:01; assay: as above; settings: source organism: Zaire ebolavirus
[15] = biological target: HLA-B*46:01; assay: as above; settings: source organism: Zaire ebolavirus

In the case of VLYHRYNLV, the pKd [1] was 7.74, the pKd [2] was ≤ 4.70 and the pKd [3] was ≤ 4.70. The pKd [4] was ≤ 4.70, the pKd [5] was ≤ 5.30 and the pKd [6] was 8.36. The pKd [7] was ≤ 4.70, the pKd [8] was 6.09 and the pKd [9] was ≤ 4.70. For the same sequence, the pKd [10] was ≤ 4.70, the pKd [11] was ≤ 5.30 and the pKd [12] was ≤ 5.30. For the same sequence, the pKd [13] was ≤ 4.70, the pKd [14] was ≤ 4.70 and the pKd [15] was ≤ 4.70.
